Assay results from article PMC5449173.

Columns and labels:
[1] = molecular target: RPTPσ FC (full-length RPTPσ fused to FKBP-Cluc) (not stated (human or mouse cDNA cloned) | not stated); test: split reporter (BiFC, NanoBiT); split firefly luciferase; 293T/17 cells co-transfected with RPTPσ FN/FC, 48 h, rapamycin for 4 hr against DMSO control
[2] = molecular target: RPTPσ (transfected in 293T/17 cells for native PAGE) (not stated (human or mouse cDNA cloned)); test: native gel or EMSA; lysates (NP-40 buffer) of RPTPσ-transfected 293T/17 cells in Coomassie blue sample buffer, native PAGE, western blot; cells untreated or treated with CSPG for 30 min

RPTPσ FN (full-length RPTPσ fused to FRB-Nluc)
fold increase of bioluminescence with rapamycin against control cells [1]: 3 fold

RPTPσ (transfected in 293T/17 cells for native PAGE) (receptor)
stoichiometry N [2]: 2
